From patent US20220227848A1 (NORDIC BIOSCIENCE A S, published 2022)

Columns and labels:
[1] = target: T1, selection peptide GLPVPGCWHK, the last 10 amino acids of the C-terminus of type XXIII collagen alpha 1 chain …; assay: figure legend (FIG. 1A/1B), PRO-C23 competitive ELISA
T1 construct: Synthetic peptide (Genscript); also called target peptide; standard peptide
T1 peptide: GLPVPGCWHK
Experimental: (§1) ELISA-plates used for the assay development were Streptavidin-coated from Roche (cat.: 11940279). All ELISA plates were analyzed with the ELISA reader from Molecular Devices, SpectraMax M, (CA, USA). The selected monoclonal antibody was labelled with horseradish peroxidase (HRP) using the Lightning link HRP labeling kit according to the instructions of the manufacturer (Innovabioscience, Babraham, Cambridge, UK). A 96-well streptavidin plate was coated with biotin-[…] (SEQ. ID No. 1) (Genscript, USA) and incubated 30 minutes at 20° C. 20 μL of standard peptide or samples were added to appropriate wells, followed by 100 μL of HRP conjugated monoclonal antibody 10F6, and incubated 20 hour at 4° C. Finally, 100 μL tetramethylbenzidine (TMB) (Kem-En-Tec cat.4380H) was added and the plate was incubated 15 minutes at […] in the dark. All the above incubation steps included shaking at 300 rpm. After each incubation step, the plate was washed five times. The TMB reaction was stopped by adding 100 μL of stopping solution (1% H₂SO₄) and measured at 450 nm with 650 nm as the reference.
(§2) Like type XXIII collagen, type XIII and XXV collagens are also transmembrane collagens and share highly similar sequences in their C-terminus (FIG. 1A). To fully investigate the specificity of the antibody, a series of peptides were synthesized and included in the inhibition test. […] (SEQ. ID No. 5) (FIG. 1B).

[2] = target: T2, type XIII collagen C-terminal peptide GLPVQGCWNK; assay: competitive ELISA (PRO-C23 assay), peptide inhibition test
T2 construct: Synthetic peptide (Genscript); also called peptide from type XIII collagen; deselection peptide
T2 peptide: GLPVQGCWNK
Experimental: as §1, §2

[3] = target: T3, elongated peptide GLPVPGCWHKA; assay: as above
T3 peptide: GLPVPGCWHKA
Experimental: as §1, §2

[4] = target: T4, truncated peptide GLPVPGCWH; assay: as above
T4 peptide: GLPVPGCWH
Experimental: as §1, §2

[5] = target: T5, type XXV collagen C-terminal peptide GLPMPGCWQK; assay: as above
T5 construct: Synthetic peptide (Genscript); also called peptide from type XXV collagen; deselection peptide
T5 peptide: GLPMPGCWQK
Experimental: as §1, §2

- binding result [1]: binds
- binding result [2]: no binding
- binding result [3]: no binding
- binding result [4]: no binding
- binding result [5]: no binding
B1: monoclonal antibody 10F6 (antibody, mouse IgG2b, kappa, V domains shown)
VH: EVKLVESGGGLVKPGGSLKLSCAASGFTFSSYAMSWVRQTPEKRLAWVASISTAGRTYYPDTVRGRITISRDNARNILYLQMSSLRSEDTAIYYCARPDYDYDGYINWGQGTLVTVSA
VL: DIVMTQAAFSNPVTLGTSAYISCRSSKSLLHSNGVTYLYWYLQKPGQSPQLLIYQMSNLASGVPDRFSSSGSGTDFTLRISRVEAEDVGVYYCAQNLELPLTFGAGTKLELKR
notes: Mouse (Balb/C) hybridoma antibody purified on an IgG column; also called PRO-C23 antibody 10F6; PRO-C23 antibody
